Test system: His6MBP-MP (TMV movement protein, 30 kDa) (Tobacco mosaic virus)
Experiment: EMSA
Conditions: 20 mM Tris-HCl pH 7.5, 35 mM KCl, 3.5 mM MgCl2, 5 U RNaseOUT, 10 ul, 30 min at 4 C; 6% native PAGE at 4 C, RNA blot detection; ssDNA/dsDNA competitors were …

Question: PSTVd WT full-length transcript, folded was tested. Which K half did it give?
Answer: The K half was 36 nM.
